The nature of series [1]: Blood concentration of long-acting peptide (Semaglutide) after microporation patch, Sub Q or oral administration. The format is in vivo, hairless Guinea pigs. From the text: Table 1 below provides data of three groups of microporation values used to create pathways in the skin in hairless Guinea pigs before applying the patch 102 containing a long-acting peptide once weekly, for example Semaglutide. Table 2 below provides data of six (6) groups of drug administration: three (3) groups for the patch 102, one (1) group for oral administration of the long-acting peptide, and two (2) groups for injected administration of the long-acting peptide.
Groups 1-3 in Tables 1 and 2 correspond to combinations of patches 102 and the microporation parameters for a particular administration. For example, the group 1 microporation parameters of Table 1 apply in conjunction with the administration of the patch 102 according to the parameters in Group 1 of Table 2. Accordingly, the patch 102 of group 1 has the nonwoven matrix, water holding material thickness of 38 μm, water holding material weight of 12 g/m^2, and WHC of […]. The patch 102 of group 1 includes a drug of 1 mg and a total solid weight of 3.25 mg with an area of 0.5 cm^2. This patch 102 is applied to an area of the skin having 200 pathways created according to the group 1 microporation parameters, where the energy applied to the microporation device is 5.2 mJ/filament, the filaments 200 are made from stainless steel and have a treated area of 10% per square centimeter of skin, where the filaments 200 treat an area of 0.5 cm^2. Similarly, group 2 of the patch 102 parameters applies to group 2 of the microporation parameters and group 3 of the patch 102 parameters applies to group 3 of the microporation parameters.
The graph 1000 includes the concentration of the long-acting peptide in nanograms/milliliter (ng/mL) along the y-axis and time in hours (hr) along the x-axis. […] The line 1002 represents the group 1 microporation parameters and the group 1 patch 102 parameters. The line 1004 represents the group 2 microporation parameters and the group 2 patch 102 parameters. The line 1006 represents the group 3 microporation parameters and the group 3 patch 102 parameters. Each of the three lines 1002, 1004, and 1006 follow the same general trend. For each of the groups 1-3 of parameters, the concentrations of the long-acting peptide generally increase to a maximum concentration relatively quickly before gradually lessening, finally reaching a concentration of 0.
The graph 1020 includes the concentration of the long-acting peptide in nanograms/milliliter (ng/mL) along the y-axis and time in hours (hr) along the x-axis. […] The line 1022 represents the group 4 injected drug. The line 1024 represents the group 5 injected drug. The line 1026 represents the group 6 […] drug. Each of the lines 1022 and 1024 follow the same general trend, rising to a highest level of concentration before gradually falling and approaching a concentration level of 0. […] The parameters of group 5 are shown by line 1024 to have a higher concentration level spike for the duration of the bioavailability of the long-acting polypeptide in the body as compared to the parameters of group 4 shown by line 1022.
The graph 1040 is zoomed out view of the graph 1000, giving a higher level view of the relationships of the lines 1002, 1004, and 1006. Similarly, the graph 1060 is a zoomed out view of the graph 1020, showing that the line 1026 (oral consumption of the long-lasting peptide) hovers around a concentration of 10 ng/mL and is not 0, as it appears from the graph 1020.
Based on the graphs 1000, 1020, 1040, and 1060, the area under the curve for each of groups 1-6 is shown below in Table 3: […]

Series [2] in a line: Blood concentration of long-acting protein (Etanercept) after patch with or without microporation or Sub Q. The format is in vivo, rats. From the text:
Table 4 below provides data of one group (group 1) of a patch 102 containing a long-acting protein, for example Etanercept, applied without any microporation, three groups (groups 2-4) of microporation values for use with patches 102, and one group (group 5) of injected administration of the long-acting protein. Table 6 below provides details of the components of the patch or drug formulation administered according to the groups 1-5.
The graph 1100 includes the concentration of the long-acting protein in nanograms/milliliter (ng/mL) along the y-axis and time in hours (hr) along the x-axis. […] The line 1102 represents the group 1 patch 102 with no microporation. The line 1104 represents the group 2 microporation parameters and the group 2 patch 102 parameters. The line 1106 represents the group 3 microporation parameters and the group 3 patch 102 parameters. The line 1108 represents the group 4 microporation parameters and the group 4 patch 102 parameters. The line 1110 represents the injected long-acting protein. Each of the three lines 1104, 1106, and 1108 follow the same general trend. For each of the groups 2-4 of parameters, the concentrations of the long-acting protein generally increase to a maximum concentration relatively quickly before gradually lessening, finally reaching a concentration of 0. The parameters of groups 3 and 4 are shown by line 1106 and 1108 to have the highest concentration level spike while the group 4 parameters result in the higher long term concentration. The parameters of group 2 are shown by line 1104 to have a generally lower concentration levels throughout as compared to the groups 3 and 4 parameters. The group 1 and group 5 administrations are lower than all of the group 2-4 administrations. Thus, for the long-acting protein, the patch administration at skin locations treated with microporation result in better bioavailabilities than even the injected administration of the drug, as detailed in Table 7 below. The graphs 1100 and 1120 also show what effects the additional components in the drug formulation (for example, sucrose, urea, and so forth) may have on the bioavailability and blood concentrations of the long-acting protein in rats.
Based on the graphs 1100 and 1120, the area under the curve for each of groups 1-5 is shown above in Table 7. […] The administrations using the patches 102 with the different microporation parameters are shown to result in the greatest concentration levels of the drug available for the longest durations.

A short description of series [3]: Blood concentration of long-acting protein (Etanercept), patch matrix comparison (Tables 8-10, FIG. 12). The series is classed as in vivo, rats. The settings on record: for peak concentration: 5.0 mg + sucrose 10 mg, 400 pores, 5.2 mJ/filament. From the text:
Table 8 below provides data of two groups (groups 1 and 2) of microporation values for use with a patch 102 containing a long-acting protein, for example Etanercept. Table 10 below provides details of the components of the patch or drug formulation administered according to the groups 1 and 2. As shown, both groups have the same drug formulation of the long-acting protein and sucrose in the same quantities.
The graph 1200 includes the concentration of the long-acting protein in nanograms/milliliter (ng/mL) along the y-axis and time in hours (hr) along the x-axis. […] The line 1202 represents the group 1 patch 102 with microporation parameter according to Table 8 and patch 102 parameters according to Table 9. The line 1204 represents the group 2 patch 102 with microporation parameter according to Table 8 and patch 102 parameters according to Table 9. The two lines 1202 and 1204 follow different trends. The line 1202 spikes quickly to a peak of above 800 ng/mL and then remains generally between 500 and 700 ng/mL until at least about 70 hours. […] This highlights the effects that the patch 102 parameters can have on the administration of the drug formulation.

Where [4] appears, read: group 1: patch 5.0 mg + sucrose 5 mg, without microporation.
[5] abbreviates: group 2: patch 5.0 mg + sucrose 5 mg, 400 pores, 5.2 mJ/filament.
[6] abbreviates: group 3: patch 5.0 mg + sucrose 5 mg + urea 5 mg, 400 pores, 5.2 mJ/filament.
Setting [7] is: group 4: patch 5.0 mg + sucrose 5 mg + disodium citrate 5 mg, 400 pores, 5.2 mJ/filament.

These results are taken from patent publication US12605539B2, “Methods and systems for delivering drugs through skin of a body” (PASSPORT TECHNOLOGIES, INC., priority 2019, dated 2026).

By AUC is commonly meant concentration integrated over time. One may read the Cmax as the peak of the concentration-time curve.

For the compound `CC[C@H](C)[C@H](NC(=O)[C@H](Cc1ccccc1)NC(=O)[C@H](CCC(=O)O)NC(=O)[C@H](CCCCNC(=O)COCCOCCNC(=O)COCCOCCNC(=O)CC[C@H](NC(=O)CCCCCCCCCCCCCCCCC(=O)O)C(=O)O)NC(=O)[C@H](C)NC(=O)[C@H](C)NC(=O)[C@H](CCC(N)=O)NC(=O)CNC(=O)[C@H](CCC(=O)O)NC(=O)[C@H](CC(C)C)NC(=O)[C@H](Cc1ccc(O)cc1)NC(=O)[C@H](CO)NC(=O)[C@H](CO)NC(=O)[C@@H](NC(=O)[C@H](CC(=O)O)NC(=O)[C@H](CO)NC(=O)[C@@H](NC(=O)[C@H](Cc1ccccc1)NC(=O)[C@@H](NC(=O)CNC(=O)[C@H](CCC(=O)O)NC(=O)C(C)(C)NC(=O)[C@@H](N)Cc1cnc[nH]1)[C@@H](C)O)[C@@H](C)O)C(C)C)C(=O)N[C@@H](C)C(=O)N[C@@H](Cc1c[nH]c2ccccc12)C(=O)N[C@@H](CC(C)C)C(=O)N[C@H](C(=O)N[C@@H](CCCNC(=N)N)C(=O)NCC(=O)N[C@@H](CCCNC(=N)N)C(=O)NCC(=O)O)C(C)C` [Semaglutide], the BA in series [1] (group 1: patch 1 mg (2 mg/cm^2), 0.5 cm^2, 200 pores, 5.2 mJ/filament) turned out to be 63.6%; in series [1] (group 2: patch 2 mg (2 mg/cm^2), 1.0 cm^2, 400 pores, 5.2 mJ/filament), 47.0%; in series [1] (group 3: patch 4 mg (2 mg/cm^2), 2.0 cm^2, 800 pores, 5.2 mJ/filament) it was 31.8%; in series [1] (group 4: Sub Q 0.5 mg), 81.8%; in series [1] (group 5: Sub Q 1.0 mg) it was 100.0%; in series [1] (group 6: Oral 2.0 mg), 0.0%.
As for Etanercept, the AUC turned out to be 0.172 µg·h/mL in series [2] (setting [4]); 208.5929 µg·h/mL in series [2] (setting [5]); 604.0884 µg·h/mL in series [2] (setting [6]); 712.8251 µg·h/mL in series [2] (setting [7]); 121.5723 µg·h/mL in series [2] (group 5: Sub Q 1.0 mg). For the same compound, the BA in series [2] (setting [4]) amounted to 0.0%; in series [2] (setting [5]), 94.3%; in series [2] (setting [6]), 99.4%; in series [2] (setting [7]), 117.2%; in series [2] (group 5: Sub Q 1.0 mg), 100.0%. Further, the Cmax is on record as 9.6 ng/mL in series [2] (setting [4]); 5189.0 ng/mL in series [2] (setting [5]); 16578.6 ng/mL in series [2] (setting [6]); 16982.4 ng/mL in series [2] (setting [7]); 1298.7 ng/mL in series [2] (group 5: Sub Q 1.0 mg). The peak concentration result in series [3] (group 1: matrix 38 μm, 12 g/m^2, WHC 4 mg/cm^2) is “above 800 ng/mL”; in series [3] (group 2: matrix 336 μm, 50 g/m^2, WHC 30 mg/cm^2), “about 275 ng/mL”. Moreover, the “concentration at about 70 hours” value in series [3] (group 2 (WHC 30 mg/cm^2)) is given as “below 100 ng/mL”. Also, the “time of peak concentration” value in series [3] (group 2 (WHC 30 mg/cm^2)) was “about 32 hours”.
